Measured values: article PMC10277598

System: CsrA-His6
Assay: EMSA
Details: 10 mM MgCl2; apparent Kd, linear regression (54.7 nM in Fig. S5); 0.5 nM labeled RNA, 0-400 nM CsrA, 10 mM MgCl2, 100 mM KCl, 32.5 ng total yeast RNA, 20 mM DTT, 7.5% glycerol, 4 U SUPERasin, 37 C 30 min; native PAGE in 1X …

hflK leader RNA (-86 to +48)
Kd: 55 nM
